Source: the supplement of paper PMC12042874
± gives the uncertainty stated by the source.

Assay: amyloid nucleation score (Sup35N fusion, yeast selection) (log enrichment); library NNK3; higher = more nucleation; inactive = no reads after selection
Summary of the method: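 For the nucleation score, DiMSum gave the log enrichment of output over input reads, centred on the mode score of non-aggregating sequences. Psi-negative yeast expressing Sup35N fused to peptides of 20 random codons were induced with 100 μM copper sulfate for 24 hours and grown 7 days at 30°C on medium lacking adenine and uracil. Input and output plasmid inserts were Illumina-sequenced, and sequences with under 100 input reads were excluded.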

Substance | amyloid nucleation score
NMMFILGFFNNKY | 2.38 ± 0.076
NNIPCGMGPSSSSCNASD | inactive
NNLTKM | inactive
NNNISFEEWFPS | inactive
NNSSLRTEVLCFDGISQFGG | inactive
NNSSSMSLINKSTCCLDWSS | 2.02 ± 0.063
NPIIKKSKLLKGHLSTCPMV | inactive
NPSVPTQTPVDMWACTKG | inactive
NPVLWVGRAF | inactive
NPWPAWPGTSCIRDLQTSIR | inactive
NQFMGRVV | inactive
NQLYSWWRFYGLNS | inactive
NRINLDSSPLKGYFLINTIT | inactive
NRISMFLNRT | inactive
NRKRFGEMNGRNYSVQGGRW | inactive
NRLWSYMGTVLFNPFWLVWR | inactive
NRRKLYKGSCGLTFRGSRER | inactive
NRSEEIFVSSATELTRLIVH | inactive
NRSSKWVISYRATICLLPMD | inactive
NRWIRLLNAISWGYLRMLMV | inactive
NSCQGE | inactive

Substance | amyloid nucleation score
NSCTDSGPMGTSFSCTLGF | inactive
NSFSRINKDIISSNSVG | inactive
NSGAA | inactive
NSGIFFLVMTSKLNAVLCLA | inactive
NSIFSVFIGMMPCLGSMENI | 3.1 ± 0.081
NSISSSRIAVNFAKYGNWDV | inactive
NSLDSRMYGI | inactive
NSPNTNVPGFSRGAFAGGRH | inactive
NSRNMVNGHLH | inactive
NSSNVFVLIVCMYWKFSYSC | inactive
NSTYSSF | inactive
NSVIGVFQLESSRRGLWDFI | 1.52 ± 0.11
NSVPRGMAFFLNAFFSLIYY | inactive
NSVVF | inactive
NSWVNSPFNLS | inactive
NTCSCTGFTFAAGDV | -0.33 ± 0.39
NTEITQLSIVLFCILYQYSV | 1.46 ± 0.11
NTMLKSVMVFWRMLDFRFRL | inactive
NTSAPSNATAAFKAITN | inactive
NTVSHMY | inactive
NTWILNC | inactive

Substance | amyloid nucleation score
NTWISMVCLLLLSDSNHTVV | 1.84 ± 0.082
NTWRYN | inactive
NVCGNDGNR | inactive
NVCRLRIFRSVYLLGYYTST | inactive
NVDGKLVD | inactive
NVFLSRFMVMRKMVWFTEF | inactive
NVFNFRVDSSDHPPVSAWWD | inactive
NVGITMGCNRTPCLSTWFAV | inactive
NVPGLSCNTSARLWRSSRLS | inactive
NVRGEENVKNILSGVL | inactive
NVRNLGRSFNWMSSCGNLCD | inactive
NVRVFFVSYVL | 0.885 ± 0.11
NVVLSVGMFLLKWS | 1.31 ± 0.09
NVVSWVNHACGWRDRSATMS | inactive
NVWDMEEERWNLKAILTMWA | inactive
NVWLNGWIVGMGYNNWHILW | 1.93 ± 0.072
NVWQFRFANRSCWFRLDIVC | inactive
NVYNMYS | 0.945 ± 0.22
NVYTYIRPRRVYK | inactive
NWDMAFNYNLTAFSPKGTNS | inactive
NWDRTIMCMYY | 2.08 ± 0.075

Substance | amyloid nucleation score
NWFRMFIGFNSCAIRRIIWD | inactive
NWFSSQS | inactive
NWFWLF | inactive
NWGLIMVSVEEDTDLGGSGM | -0.114 ± 0.88
NWGVVYYISSCNGNSSHLSS | 1.83 ± 0.097
NWIRS | inactive
NWRPV | inactive
NWRQNEPYSPGSKSLGWHSF | inactive
NYALWFANI | inactive
NYDKCSDPRRRRRLFFHLYD | inactive
NYDVPSDLRWEMLWVAYCRR | inactive
NYGYRRPVMILPVHR | inactive
NYHTFSYCI | inactive
NYMVFNIGVGCFTISNTK | 3.14 ± 0.069
NYRWTWPMPTQEALTPNSDS | inactive
NYVGSSPGVGSRYTCLKSNV | inactive
NYYSGMRLSQNKKTST | 0.701 ± 0.11
PAELGVVSMCGFLGSAAYQE | inactive
